These results are taken from patent US20190169305A1 (TEIKYO HEISEI UNIVERSITY, published 2019).

One assay concerns the target T1, bovine serum albumin (bovine, UniProt P02769 25-607).
T1 construct: also called BSA; BSA negative antigen
The assay can be described thus: ELISA, BSA coated at 1 or 10 µg/ml, 4E6 monomer at 1 µg/ml, detected with anti-Myc 9E10 and anti-mouse IgG HRP, OD450. (In general: An ELISA detects its analyte on a solid surface through an enzyme-linked reagent.)

Assay [1] addresses T2, mouse TRAIL-R2:alpaca Fc (mTRAIL-R2:Fc) (mouse; Lama pacos (alpaca), UniProt Q9QZM4 52-177).
T2 construct: range 52-177;range 102-335; also called mTRAIL (mouse TRAIL)-R2:Fc
T2 sequence: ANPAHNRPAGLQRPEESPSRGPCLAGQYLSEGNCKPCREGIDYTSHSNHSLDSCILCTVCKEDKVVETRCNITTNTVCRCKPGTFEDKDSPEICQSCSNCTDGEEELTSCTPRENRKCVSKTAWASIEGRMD
As to the kind of experiment: ELISA, antigens coated at 1 µg/ml, VHH monomer at 10 µg/ml, absorbance 450 nm.

Assay [2] deals with T3, human TRAIL-R1:alpaca Fc (hTRAIL-R1:Fc) (human; Lama pacos (alpaca)).
T3 construct: also called hTRAIL-R1:Fc antigen; recombinant human TRAIL-R1 ECD
T3 chain: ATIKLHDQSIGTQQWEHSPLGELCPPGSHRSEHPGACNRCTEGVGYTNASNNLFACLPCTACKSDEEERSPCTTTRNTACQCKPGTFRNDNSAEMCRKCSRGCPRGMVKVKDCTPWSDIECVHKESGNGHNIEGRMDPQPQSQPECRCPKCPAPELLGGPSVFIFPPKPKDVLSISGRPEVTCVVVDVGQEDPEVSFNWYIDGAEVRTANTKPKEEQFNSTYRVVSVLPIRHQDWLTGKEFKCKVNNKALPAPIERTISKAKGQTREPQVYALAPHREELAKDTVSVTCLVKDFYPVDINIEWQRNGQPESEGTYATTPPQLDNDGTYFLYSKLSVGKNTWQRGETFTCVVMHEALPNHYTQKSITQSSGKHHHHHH
Described as above.

The target in assay [3] is T4, human TRAIL-R2:alpaca Fc (hTRAIL-R2:Fc) (human; Lama pacos (alpaca)).
T4 construct: also called hTRAIL-R2:Fc antigen; recombinant human TRAIL-R2:Fc antigen
T4 chain: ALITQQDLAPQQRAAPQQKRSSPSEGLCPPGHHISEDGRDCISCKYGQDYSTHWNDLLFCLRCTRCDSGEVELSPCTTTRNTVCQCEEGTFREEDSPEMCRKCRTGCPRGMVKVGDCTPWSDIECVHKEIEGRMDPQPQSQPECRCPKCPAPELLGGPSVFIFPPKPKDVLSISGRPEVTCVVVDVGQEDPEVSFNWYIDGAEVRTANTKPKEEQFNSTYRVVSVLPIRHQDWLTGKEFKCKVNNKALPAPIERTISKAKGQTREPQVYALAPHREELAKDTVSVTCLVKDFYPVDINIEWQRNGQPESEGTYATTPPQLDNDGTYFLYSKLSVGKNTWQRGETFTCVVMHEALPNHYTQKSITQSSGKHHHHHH
The assay can be described thus: SPR, Biacore X-100, multi-cycle kinetics, 4E6 monomer as analyte (0.919-117.6 nM). Background: SPR reads the build-up and loss of mass on a sensor chip optically.

Usually Kd stands for the free concentration of one partner at which half of the binding sites on the other are occupied at equilibrium, for simple one-to-one binding.

T1 sequence (P02769 25-607 limits assumed): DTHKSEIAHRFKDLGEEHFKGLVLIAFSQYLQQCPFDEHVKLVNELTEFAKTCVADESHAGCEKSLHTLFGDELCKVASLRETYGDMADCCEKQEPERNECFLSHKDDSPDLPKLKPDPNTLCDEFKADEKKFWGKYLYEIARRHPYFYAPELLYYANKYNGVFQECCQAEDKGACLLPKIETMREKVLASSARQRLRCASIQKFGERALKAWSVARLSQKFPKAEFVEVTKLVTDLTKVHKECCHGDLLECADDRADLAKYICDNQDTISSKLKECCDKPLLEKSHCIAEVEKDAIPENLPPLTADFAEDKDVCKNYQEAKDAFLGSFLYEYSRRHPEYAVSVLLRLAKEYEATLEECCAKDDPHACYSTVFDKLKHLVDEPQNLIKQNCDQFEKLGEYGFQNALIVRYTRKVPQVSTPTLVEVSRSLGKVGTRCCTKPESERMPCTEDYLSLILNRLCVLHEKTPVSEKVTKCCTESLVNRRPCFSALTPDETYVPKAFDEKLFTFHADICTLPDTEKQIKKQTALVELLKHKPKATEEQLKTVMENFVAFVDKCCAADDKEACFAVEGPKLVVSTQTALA

B1: 4E6 monomer (anti-hTRAIL-R2 VHH antibody/Myc-Tag, expressed in E. coli) (VHH)
VHH: EVQLVESGGGSVQAGDSLRLSCAASGRTFGSIRVGWFRQTPGKEREFVAAINRNDGTTYYADSVKGRFTISRDNAKNTVYMQMASLKPEDTAVYYCAAGLQYNRSADRVPVGAVYWGQGTQVTVSS
notes: also called 4E6 VHH monomer; 4E6 monomeric protein
Take B1: the binding result with bovine serum albumin is “no binding (tested: 1 µg/ml)”; in assay [1], “no binding (tested: 10 µg/ml)”; in assay [2] it was “no binding (tested: 10 µg/ml)”. Further, the Kd in assay [3] amounted to 0.075 nM.
